The record followed here is US20240209084A1 (CYTOARM, published 2024).

The target in assay [1] is T1, EpCAM (human, UniProt P16422 24-314).
T1 construct: whole, on cells; also called epithelial cell adhesion molecule; EpCAM^+ prostate cancer (LNCaP)
T1 sequence (looked up): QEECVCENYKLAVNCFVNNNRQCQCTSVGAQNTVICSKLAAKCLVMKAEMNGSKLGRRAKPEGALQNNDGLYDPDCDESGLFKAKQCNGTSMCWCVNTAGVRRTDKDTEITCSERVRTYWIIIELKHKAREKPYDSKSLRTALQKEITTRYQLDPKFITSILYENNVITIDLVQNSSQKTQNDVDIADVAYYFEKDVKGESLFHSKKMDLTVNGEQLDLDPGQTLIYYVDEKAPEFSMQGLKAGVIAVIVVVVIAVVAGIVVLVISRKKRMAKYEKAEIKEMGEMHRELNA
Kind of assay: flow cytometry on LNCaP cells (EpCAM+), FITC goat anti-human IgG Fab.
Description: (§1) Samples were analyzed with FITC conjugated Goat anti-Human IgG Fab antibody and flow cytometry.

The target in assay [2] is T2, CD33 (human, UniProt P20138 18-364).
T2 construct: whole, on cells; also called CD33^+ human acute myeloid leukemia (HL-60)
T2 sequence (P20138 18-364): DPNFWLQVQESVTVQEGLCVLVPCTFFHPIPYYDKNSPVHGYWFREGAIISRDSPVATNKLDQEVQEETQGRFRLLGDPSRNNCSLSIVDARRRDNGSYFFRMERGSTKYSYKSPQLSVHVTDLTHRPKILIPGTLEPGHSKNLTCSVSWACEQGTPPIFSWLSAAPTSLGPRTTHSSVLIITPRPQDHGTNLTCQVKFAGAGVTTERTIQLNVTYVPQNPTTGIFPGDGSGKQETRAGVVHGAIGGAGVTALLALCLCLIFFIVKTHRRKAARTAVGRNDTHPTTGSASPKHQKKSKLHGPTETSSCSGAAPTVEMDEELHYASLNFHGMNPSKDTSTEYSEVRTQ
The assay can be described thus: flow cytometry on HL-60 cells (CD33+), FITC goat anti-human IgG Fab.
Description: as §1

Assay [3] addresses T3, CD47 (human, UniProt Q08722 19-323).
T3 construct: whole, on cells; also called CD47^+ breast cancer (MCF7/HER2)
The assay can be described thus: flow cytometry on MCF-7/HER2 cells (CD47+), FITC goat anti-human IgG Fab.
Description: as §1

Assay [4] has as its target T4, HGFR (human, UniProt P08581 25-1390).
T4 construct: whole, on cells; also called cMET; hepatocyte growth factor receptor
The assay can be described thus: flow cytometry on A549 cells (HGFR+), FITC goat anti-human IgG Fab.
Description: as §1

T4 sequence (P08581 25-1390): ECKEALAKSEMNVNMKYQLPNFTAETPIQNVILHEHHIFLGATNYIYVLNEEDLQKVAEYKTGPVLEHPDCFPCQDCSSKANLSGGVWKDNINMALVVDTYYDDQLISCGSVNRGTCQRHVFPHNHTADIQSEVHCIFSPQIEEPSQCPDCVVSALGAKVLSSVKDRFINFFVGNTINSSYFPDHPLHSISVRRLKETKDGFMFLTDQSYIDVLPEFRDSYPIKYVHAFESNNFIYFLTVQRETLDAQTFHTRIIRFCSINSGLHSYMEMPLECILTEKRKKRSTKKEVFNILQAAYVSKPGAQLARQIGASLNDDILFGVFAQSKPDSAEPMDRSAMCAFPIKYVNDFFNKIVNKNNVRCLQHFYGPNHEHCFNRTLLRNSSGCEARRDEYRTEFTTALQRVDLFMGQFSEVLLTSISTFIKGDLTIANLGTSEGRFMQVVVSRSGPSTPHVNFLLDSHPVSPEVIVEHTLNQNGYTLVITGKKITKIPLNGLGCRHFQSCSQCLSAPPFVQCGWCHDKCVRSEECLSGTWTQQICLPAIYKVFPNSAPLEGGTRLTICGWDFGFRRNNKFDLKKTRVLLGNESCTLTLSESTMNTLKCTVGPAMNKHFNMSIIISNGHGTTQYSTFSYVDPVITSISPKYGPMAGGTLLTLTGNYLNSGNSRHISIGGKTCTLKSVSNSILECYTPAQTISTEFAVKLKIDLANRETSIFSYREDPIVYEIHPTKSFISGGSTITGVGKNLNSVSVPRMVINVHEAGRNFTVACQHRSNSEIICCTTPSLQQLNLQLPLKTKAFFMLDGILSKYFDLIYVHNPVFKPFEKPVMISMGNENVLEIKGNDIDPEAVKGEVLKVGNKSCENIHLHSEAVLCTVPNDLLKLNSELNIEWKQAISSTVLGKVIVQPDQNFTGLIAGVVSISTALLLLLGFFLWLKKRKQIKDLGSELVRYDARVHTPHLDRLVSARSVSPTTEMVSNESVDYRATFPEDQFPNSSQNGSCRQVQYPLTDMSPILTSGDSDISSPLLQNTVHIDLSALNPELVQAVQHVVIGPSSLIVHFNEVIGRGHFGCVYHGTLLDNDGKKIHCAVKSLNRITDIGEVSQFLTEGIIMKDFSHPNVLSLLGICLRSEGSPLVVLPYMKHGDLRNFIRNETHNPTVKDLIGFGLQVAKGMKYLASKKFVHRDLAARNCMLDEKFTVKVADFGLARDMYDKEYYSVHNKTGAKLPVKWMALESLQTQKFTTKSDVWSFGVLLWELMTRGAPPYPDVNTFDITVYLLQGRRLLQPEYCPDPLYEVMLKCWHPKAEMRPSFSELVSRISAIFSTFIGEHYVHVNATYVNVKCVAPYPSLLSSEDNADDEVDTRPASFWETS

B1: CTA03Fab/CTAT07scFv (bispecific antibody)
heavy: EVQLLESGGGLVQPGGSLRLSCAASGFTFSSFPMAWVRQAPGKGLEWVSTISTSGGRTYYRDSVKGRFTISRDNSKNTLYLQMNSLRAEDTAVYYCAKFRQYSGGFDYWGQGTLVTVSSASTKGPSVFPLAPSSKSTSGGTAALGCLVKDYFPEPVTVSWNSGALTSGVHTFPAVLQSSGLYSLSSVVTVPSSSLGTQTYICNVNHKPSNTKVDKKVEPKSCGGGSGGGEVQLVQSGPGLVQPGGSVRISCAASGYTFTNYGMNWVKQAPGKGLEWMGWINTYTGESTYADSFKGRFTFSLDTSASAAYLQINSLRAEDTAVYYCARFAIKGDYWGQGTLLTVSSGGGGSGGGGSGGGGSDIQMTQSPSSLSASVGDRVTITCRSTKSLLHSNGITYLYWYQQKPGKAPKLLIYQMSNLASGVPSRFSSSGSGTDFTLTISSLQPEDFATYYCAQNLEIPRTFGQGTKVELK
light: DIQLTQPNSVSTSLGSTVKLSCTLSSGNIENNYVHWYQLYEGRSPTTMIYDDDKRPDGVPDRFSGSIDRSSNSAFLTIHNVAIEDEAIYFCHSYVSSFNVFGGGTKLTVLRQPKAAPSVTLFPPSSEELQANKATLVCLISDFYPGAVTVAWKADSSPVKAGVETTTPSKQSNNKYAASSYLSLTPEQWKSHRSYSCQVTHEGSTVEKTVAPTECS
notes: also called antiCD3Fab/anti-EpCAMscFv
For B1, the binding result in assay [1] is recorded as “binds”.

B2: CTA03Fab/CTAT11scFv (bispecific antibody)
heavy: EVQLLESGGGLVQPGGSLRLSCAASGFTFSSFPMAWVRQAPGKGLEWVSTISTSGGRTYYRDSVKGRFTISRDNSKNTLYLQMNSLRAEDTAVYYCAKFRQYSGGFDYWGQGTLVTVSSASTKGPSVFPLAPSSKSTSGGTAALGCLVKDYFPEPVTVSWNSGALTSGVHTFPAVLQSSGLYSLSSVVTVPSSSLGTQTYICNVNHKPSNTKVDKKVEPKSCGGGSGGGEVQLVQSGAEVKKPGSSVKVSCKASGYTITDSNIHWVRQAPGQSLEWIGYIYPYNGGTDYNQKFKNRATLTVDNPTNTAYMELSSLRSEDTAFYYCVNGNPWLAYWGQGTLVTVSSGGGGSGGGGSGGGGSDIQLTQSPSTLSASVGDRVTITCRASESLDNYGIRFLTWFQQKPGKAPKLLMYAASNQGSGVPSRFSGSGSGTEFTLTISSLQPDDFATYYCQQTKEVPWSFGQGTKVEVK
light: DIQLTQPNSVSTSLGSTVKLSCTLSSGNIENNYVHWYQLYEGRSPTTMIYDDDKRPDGVPDRFSGSIDRSSNSAFLTIHNVAIEDEAIYFCHSYVSSFNVFGGGTKLTVLRQPKAAPSVTLFPPSSEELQANKATLVCLISDFYPGAVTVAWKADSSPVKAGVETTTPSKQSNNKYAASSYLSLTPEQWKSHRSYSCQVTHEGSTVEKTVAPTECS
notes: also called antiCD3Fab/anti-CD33scFv
Consider B2, for which, in assay [2], the binding result was “binds”.

B3: CTA03Fab/CTAT13scFv (bispecific antibody)
heavy: EVQLLESGGGLVQPGGSLRLSCAASGFTFSSFPMAWVRQAPGKGLEWVSTISTSGGRTYYRDSVKGRFTISRDNSKNTLYLQMNSLRAEDTAVYYCAKFRQYSGGFDYWGQGTLVTVSSASTKGPSVFPLAPSSKSTSGGTAALGCLVKDYFPEPVTVSWNSGALTSGVHTFPAVLQSSGLYSLSSVVTVPSSSLGTQTYICNVNHKPSNTKVDKKVEPKSCGGGSGGGQVQLVQSGAEVKKPGASVKVSCKASGYTFTNYNMHWVRQAPGQRLEWMGTIYPGNDDTSYNQKFKDRVTITADTSASTAYMELSSLRSEDTAVYYCARGGYRAMDYWGQGTLVTVSSGGGGSGGGGSGGGGSDIVMTQSPLSLPVTPGEPASISCRSSQSIVYSNGNTYLGWYLQKPGQSPQLLIYKVSNRFSGVPDRFSGSGSGTDFTLKISRVEAEDVGVYYCFQGSHVPYTFGQGTKLEIK
light: DIQLTQPNSVSTSLGSTVKLSCTLSSGNIENNYVHWYQLYEGRSPTTMIYDDDKRPDGVPDRFSGSIDRSSNSAFLTIHNVAIEDEAIYFCHSYVSSFNVFGGGTKLTVLRQPKAAPSVTLFPPSSEELQANKATLVCLISDFYPGAVTVAWKADSSPVKAGVETTTPSKQSNNKYAASSYLSLTPEQWKSHRSYSCQVTHEGSTVEKTVAPTECS
notes: also called antiCD3Fab/anti-CD47scFv
As to B3, the binding result in assay [3] is on record as “binds”.

B4: CTA03Fab/CTAT12scFv (bispecific antibody)
heavy: EVQLLESGGGLVQPGGSLRLSCAASGFTFSSFPMAWVRQAPGKGLEWVSTISTSGGRTYYRDSVKGRFTISRDNSKNTLYLQMNSLRAEDTAVYYCAKFRQYSGGFDYWGQGTLVTVSSASTKGPSVFPLAPSSKSTSGGTAALGCLVKDYFPEPVTVSWNSGALTSGVHTFPAVLQSSGLYSLSSVVTVPSSSLGTQTYICNVNHKPSNTKVDKKVEPKSCGGGSGGGEVQLVESGGGLVQPGGSLRLSCAASGYTFTSYWLHWVRQAPGKGLEWVGMIDPSNSDTRFNPNFKDRFTISADTSKNTAYLQMNSLRAEDTAVYYCATYRSYVTPLDYWGQGTLVTVSSGGGGSGGGGSGGGGSDIQMTQSPSSLSASVGDRVTITCKSSQSLLYTSSQKNYLAWYQQKPGKAPKLLIYWASTRESGVPSRFSGSGSGTDFTLTISSLQPEDFATYYCQQYYAYPWTFGQGTKVEIK
light: DIQLTQPNSVSTSLGSTVKLSCTLSSGNIENNYVHWYQLYEGRSPTTMIYDDDKRPDGVPDRFSGSIDRSSNSAFLTIHNVAIEDEAIYFCHSYVSSFNVFGGGTKLTVLRQPKAAPSVTLFPPSSEELQANKATLVCLISDFYPGAVTVAWKADSSPVKAGVETTTPSKQSNNKYAASSYLSLTPEQWKSHRSYSCQVTHEGSTVEKTVAPTECS
notes: also called antiCD3Fab/anti-HGFRscFv
For the molecule B4, the binding result in assay [4] is given as “binds”.
